From patent publication US20220251241A1 (NGM BIOPHARMACEUTICALS, published 2022)
Positions count from the first letter of the chain named. Names and notes keep the numbering of the source.

B1: antibody 9F8 (antibody, V domains shown)
VH: QVQLQQPGAELVRPGSSVKLSCKASGYAFTTYWMHWVKQRPIQGLEWIGNIDPSDSETHYNQKFRDKATLTVDKSSSTAYMQLSSLTSEDSAVYYCARDYGAFDVWGTGTTVTVSS
VL: QAVVTQESALTTSSGETVTLTCRSSTGAVTTRNFASWVQEKPDHLFTGLIGGTNNRAPGVPARFSGSLIGDKAALTITGAQTEDEAIYFCALWYSNLWVFGGGTKLTVL
notes: Mouse hybridoma monoclonal antibody
B2: antibody 55B12 (antibody, V domains shown)
VH: QVQLQQPGAELVKPGASVKLSCKASGYTFTNYWMHWVKQRPGQGLEWIGNIDPSDSETHYNQKFKDKATLAVDKSSSTAYMQLSSLTSEDSAVYYCAREDSSGYGAYWGQGTLVTVSA
VL: QIVLTQSPAIMSASPGEKVTMTCSASSSVNYMHWYQQKSGTSPKRWIYDTSKLASGVPDRFSGSGSGTSYSLTISSMEAEDAATYYCQQWSSHPLTFGAGTKLELK
notes: as for B1
B3: hz24F7.v2 S91A (antibody, human IgG1, kappa, N297G, V domains shown)
VH: QVQLVQSGAEVKKPGASVKVSCKASGYTFTDYEMHWVRQAPGQRLEWMGAIDPETGGTAYNQKFKGRVTITADKSASTAYMELSSLRSEDTAVYYCTREGYSYEGGGYYFDYWGQGTLVTVSS
VL: DIQMTQSPSSLSASVGDRVTITCSVSSSVSYMYWYQQKPGKAPKLLIYDTSNLASGVPSRFSGSGSGTDFTFTISSLQPEDIATYYCQQWASYPTFGQGTKLEIKR
notes: hz24F7.v2 with a substitution in light chain CDR3
B4: hz24F7.v2 S92Y (antibody, human IgG1, kappa, N297G, V domains shown)
VH: B3 VH
VL: B3 VL with A91S, S92Y
notes: as for B3
B5: hz24F7.v2 S91L (antibody, human IgG1, kappa, N297G, V domains shown)
VH: B3 VH
VL: B3 VL with A91L
B6: hz24F7.v2 S91T (antibody, human IgG1, kappa, N297G, V domains shown)
VH: B3 VH
VL: B3 VL with A91T
notes: as for B3
B7: hz24F7.v2 S91Y (antibody, human IgG1, kappa, N297G, V domains shown)
VH: B3 VH
VL: B3 VL with A91Y
notes: as for B3
B8: hz24F7.v2 S92D (antibody, human IgG1, kappa, N297G, V domains shown)
VH: B3 VH
VL: B3 VL with A91S, S92D
notes: as for B3
B9: hz24F7.v2 S92T (antibody, human IgG1, kappa, N297G, V domains shown)
VH: B3 VH
VL: B3 VL with A91S, S92T
notes: as for B3
B10: antibody 65G8 (antibody, V domains shown)
VH: QVQLQQSGPQLVRPGASVKISCKASGYSFTSYWMHWVKQRPGQGLEWIGMIDPSDSETRLNQKFKDKATLTIDKSSSTAYMQLSSPTSEDSAVYYCTRDYFDYWGQGTTLTVSS
VL: QIVLTQSPAIMSTSPGEKVTMTCSASSSVSYMYWYQQKPGSSPRLLIYDTSNLASGVPVRFSGSGSGTSYSLTISRMEAEDAATYYCQQWSSYPYTFGGGTKLEIK
notes: as for B1

What was measured:
[1] = molecular target: T1, HTRA1 (construct not given) (Homo sapiens (Human), UniProt Q92743 23-480, limits assumed); assay: cell-based or functional assay
[2] = molecular target: T1, HTRA1 (construct not stated in the …); assay: protease inhibition assay, casein substrate (EnzChek); apparent Ki (Ki^app)
Source text: Two enzymatic assays were used to characterize HTRA1 protease activity and evaluate inhibitory activity of anti-HTRA1 antibodies. EnzChek® Protease Assay Kit (ThermoFisher Scientific) was used following the manufacturer's instructions. This kit contains casein protein that is heavily labeled with the pH-insensitive green-fluorescent BOPIPY® FL dye that results in almost total quenching of the conjugate's fluorescence. Protease-catalyzed hydrolysis of labeled casein releases highly fluorescent BODIPY® FL dye-labeled peptides. The concomitant increase in fluorescence is proportional to protease activity.
Antibodies identified in HTRA1 binding assays were tested for their ability to inhibit HTRA1 protease activity. The range of antibody concentrations was tested to establish a dose response curve and determine IC₅₀ values.

[3] = molecular target: T1, HTRA1 (construct not stated in the …); assay: protease inhibition assay, H2-Opt peptide substrate (FRET); apparent Ki (Ki^app)
[4] = molecular target: human delta N-HTRA1 (amino acids 156-480 of SEQ ID NO:1) (human, UniProt Q92743 156-480); assay: SPR (Biacore); antibody captured by anti-Fc, human delta N-HTRA1 injected; temperature of this table not stated
Description: (§1) The binding affinities of anti-HTRA1 antibodies to human HTRA1 were measured using a Biacore system (GE Healthcare Life Sciences). Briefly, anti-Fc antibody (Sigma-Aldrich) was immobilized on all four flow cells of a CMS chip using amine coupling reagents (GE Healthcare LifeSciences). Antibodies were captured on flow cells 2, 3, and 4 using flow cell 1 as a reference. Concentrations ranging from 3.3-10 nM of human delta N-HTRA1 were injected at a flow rate of 50 μL/min at 37° C. Kinetic data were collected over time and fit using the simultaneous global fit equation to yield affinity constants (KD values) for each antibody.

[5] = molecular target: T1, HTRA1 (construct not stated in the …); assay: SPR (Biacore)
Description: as §1
In order to determine whether a hz24F7.v2 variant, comprising one of the amino acid substitutions disclosed in Table 15, retains its HTRA1 binding capability, functional characterization was performed via an SPR assay as described herein and an HTRA1 enzyme assay.

[6] = molecular target: T1, HTRA1 (construct not stated in the …); assay: cell-based or functional assay; remark: listed apart in the source
[7] = molecular target: T1, HTRA1 (construct not stated in the …); assay: cell-based or functional assay; remark: listed apart in the source
[8] = molecular target: T1, HTRA1 (construct not stated in the …); assay: cell-based or functional assay; remark: listed apart in the source
[9] = molecular target: T1, HTRA1 (construct not stated in the …); assay: SPR (Biacore); affinity at baseline

T1 sequence (Q92743 23-480 limits assumed): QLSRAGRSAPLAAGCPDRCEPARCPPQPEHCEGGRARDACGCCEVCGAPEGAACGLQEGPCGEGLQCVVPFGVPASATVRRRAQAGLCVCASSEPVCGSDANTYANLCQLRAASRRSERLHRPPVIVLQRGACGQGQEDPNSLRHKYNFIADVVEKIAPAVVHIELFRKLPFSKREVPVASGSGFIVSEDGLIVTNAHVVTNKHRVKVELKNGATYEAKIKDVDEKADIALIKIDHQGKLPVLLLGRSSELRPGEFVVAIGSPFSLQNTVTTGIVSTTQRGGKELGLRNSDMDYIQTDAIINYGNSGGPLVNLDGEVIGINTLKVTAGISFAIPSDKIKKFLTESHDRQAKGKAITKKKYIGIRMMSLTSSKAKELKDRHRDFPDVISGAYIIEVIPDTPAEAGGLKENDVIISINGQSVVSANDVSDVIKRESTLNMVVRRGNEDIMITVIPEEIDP
Chain of human delta N-HTRA1 (amino acids 156-480 of SEQ ID NO:1) (Q92743 156-480, stated change not applied): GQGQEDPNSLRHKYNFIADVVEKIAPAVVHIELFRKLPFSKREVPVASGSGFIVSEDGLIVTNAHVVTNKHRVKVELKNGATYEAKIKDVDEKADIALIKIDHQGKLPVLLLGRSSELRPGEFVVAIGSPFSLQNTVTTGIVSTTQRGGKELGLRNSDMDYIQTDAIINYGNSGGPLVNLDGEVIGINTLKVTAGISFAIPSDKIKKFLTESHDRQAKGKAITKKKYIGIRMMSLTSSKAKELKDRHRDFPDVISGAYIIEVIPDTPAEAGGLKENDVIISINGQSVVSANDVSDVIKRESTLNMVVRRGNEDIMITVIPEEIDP

Row | Binder | IC50, Protease Assay-Casein substrate [1] [nM] | IC50, Protease Assay-H2-Opt peptide [1] [nM] | Kd [4] [nM] | koff [4] [s⁻¹] | kon [4] [M⁻¹ s⁻¹] | Kd [5] [nM] | koff [5] [s⁻¹] | kon [5] [M⁻¹ s⁻¹] | IC50, HTRA1 enzyme assay [6] [nM] | also measured
1 | B1 | 0.19 | 0.12 | 0.14 | 0.0044 | 3e+07 |  |  |  |  | Ki [2]: 0.035 nM; Ki [3]: 0.092 nM
2 | B2 | 0.13 | 0.13 | 0.45 | 0.017 | 3.8e+07 |  |  |  |  | 
3 | B3 |  |  |  |  |  | 0.0465 | 0.000169 | 3.63e+06 |  | 
4 | B4 |  |  |  |  |  | 0.0321 | 0.000275 | 8.56e+06 | 0.097 | 
5 | B5 |  |  |  |  |  | 0.0439 | 0.000161 | 3.67e+06 | 0.084 | 
6 | B6 |  |  |  |  |  | 0.0266 | 0.000189 | 7.1e+06 |  | 
7 | B7 |  |  |  |  |  | 0.0405 | 0.000184 | 4.54e+06 | 0.07 | IC50 at baseline [7]: 0.07 nM; IC50, enzyme assay; sample stored pH 7.4, 40° C., 0 weeks [8]: 43.4 pM; IC50, enzyme assay; sample stored pH 7.4, 40° C., 2 weeks [8]: 42 pM; IC50, enzyme assay; sample stored pH 7.4, 40° C., 4 weeks [8]: 54.3 pM; Kd [9]: 0.0405 nM; koff [9]: 0.000184 s⁻¹; kon [9]: 4.54e+06 M⁻¹ s⁻¹
8 | B8 |  |  |  |  |  | 0.0249 | 0.000217 | 8.7e+06 | 0.067 | 
9 | B9 |  |  |  |  |  | 0.02 | 0.000197 | 9.81e+06 | 0.098 | IC50, enzyme assay; sample stored pH 7.4, 40° C., 0 weeks [8]: 67.5 pM; IC50, enzyme assay; sample stored pH 7.4, 40° C., 2 weeks [8]: 75.2 pM; IC50, enzyme assay; sample stored pH 7.4, 40° C., 4 weeks [8]: 93.7 pM
10 | B10 | 0.06 | 0.09 | 0.42 | 0.003 | 6.9e+06 |  |  |  |  | 
